Test results: publication PMC4893650 (Theranostics, 2016)

Target: purified HER2 protein (human epidermal growth factor receptor-2) (human, UniProt P04626 23-652)
Experiment: SPR

B1: peptide P51 (peptide)
peptide: CDTFPYLGWWNPNEYRY
Question: B1 was tested. Which Kd did it give?
Answer: Its Kd is 18.6 nM.
